Blank lines part the entries; values can stand above or below the substance they belong to.
What was measured:
[1] = biological target: human MC5 (melanocortin receptor 5) (human) (UniProt P33032)
[2] = biological target: human MC4 (melanocortin receptor 4) (human) (UniProt P32245)
[3] = biological target: mouse MC3 (melanocortin receptor 3) (mouse) (UniProt P33033)
[4] = biological target: human MC3 (melanocortin receptor 3) (human) (UniProt P41968)
Chain of UniProt P41968 (P41968 whole entry): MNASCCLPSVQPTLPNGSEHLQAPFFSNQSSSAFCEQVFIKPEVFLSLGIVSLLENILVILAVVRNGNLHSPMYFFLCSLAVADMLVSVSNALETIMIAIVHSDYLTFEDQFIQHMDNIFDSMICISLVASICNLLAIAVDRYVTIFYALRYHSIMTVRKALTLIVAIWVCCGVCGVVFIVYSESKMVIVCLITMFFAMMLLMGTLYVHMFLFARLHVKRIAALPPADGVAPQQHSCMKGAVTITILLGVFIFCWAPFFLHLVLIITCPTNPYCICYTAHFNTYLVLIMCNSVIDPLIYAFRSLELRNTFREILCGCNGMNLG

Chain of UniProt P33033 (P33033 whole entry): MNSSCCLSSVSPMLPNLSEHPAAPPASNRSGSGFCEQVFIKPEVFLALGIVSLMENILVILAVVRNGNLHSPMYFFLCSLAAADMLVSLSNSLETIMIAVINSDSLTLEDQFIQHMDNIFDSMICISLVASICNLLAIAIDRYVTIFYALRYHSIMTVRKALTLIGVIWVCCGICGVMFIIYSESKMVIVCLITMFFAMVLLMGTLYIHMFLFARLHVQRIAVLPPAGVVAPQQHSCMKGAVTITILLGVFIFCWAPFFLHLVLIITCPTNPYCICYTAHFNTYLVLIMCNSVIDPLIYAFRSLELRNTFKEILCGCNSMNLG
Chain of UniProt P33032 (P33032 whole entry): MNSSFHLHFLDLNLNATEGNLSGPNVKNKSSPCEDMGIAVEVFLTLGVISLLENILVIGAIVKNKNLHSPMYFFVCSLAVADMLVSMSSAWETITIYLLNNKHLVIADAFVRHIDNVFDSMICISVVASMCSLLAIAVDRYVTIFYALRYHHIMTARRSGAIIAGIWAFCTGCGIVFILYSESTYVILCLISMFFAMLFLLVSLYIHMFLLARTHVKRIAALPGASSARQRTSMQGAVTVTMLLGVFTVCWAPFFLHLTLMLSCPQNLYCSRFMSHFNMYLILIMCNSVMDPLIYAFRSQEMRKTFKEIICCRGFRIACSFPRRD
Chain of UniProt P32245 (P32245 whole entry): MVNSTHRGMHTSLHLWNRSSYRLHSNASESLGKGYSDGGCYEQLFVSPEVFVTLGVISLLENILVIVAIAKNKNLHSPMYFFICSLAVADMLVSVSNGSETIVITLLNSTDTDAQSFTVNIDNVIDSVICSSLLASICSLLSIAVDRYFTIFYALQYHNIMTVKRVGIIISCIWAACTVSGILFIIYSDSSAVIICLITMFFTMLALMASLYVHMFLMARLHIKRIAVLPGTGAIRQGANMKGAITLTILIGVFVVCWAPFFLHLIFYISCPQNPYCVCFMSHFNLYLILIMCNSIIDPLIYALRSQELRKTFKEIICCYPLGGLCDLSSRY

pEC50 of cAMP production (HTRF cAMP assay) in receptor-transfected cells, with 0-30 μM fenoprofen; 6.13 at 0 μM, highest at 30 μM [1]: 6.8 pEC50
pEC50 of cAMP production (HTRF cAMP assay) in receptor-transfected cells, with 0-30 μM fenoprofen; 7.33 at 0 μM, highest at 30 μM [2]: 7.72 pEC50
pEC50 of cAMP production (HTRF cAMP assay) in receptor-transfected cells, with 0-30 μM fenoprofen; 9.19 at 0 μM, highest at 10 μM [3]: 9.3 pEC50
pEC50 of cAMP production (HTRF cAMP assay) in receptor-transfected cells, with 0-30 μM fenoprofen; 8.80 at 0 μM, highest at 30 μM [4]: 9.35 pEC50
Substance: Lys-γ3MSH (peptide)

pEC50 of cAMP production (HTRF cAMP assay) in receptor-transfected cells, with 0-30 μM fenoprofen; 8.98 at 0 μM, highest at 10 μM [1]: 9.06 pEC50
pEC50 of cAMP production (HTRF cAMP assay) in receptor-transfected cells, with 0-30 μM fenoprofen; highest at 0 μM, 10.38 at 30 μM [2]: 10.5 pEC50
pEC50 of cAMP production (HTRF cAMP assay) in receptor-transfected cells, with 0-30 μM fenoprofen; 9.78 at 0 μM, highest at 3 μM [3]: 9.86 pEC50
pEC50 of cAMP production (HTRF cAMP assay) in receptor-transfected cells, with 0-30 μM fenoprofen; 9.40 at 0 μM, highest at 30 μM [4]: 9.66 pEC50
Substance: NDP-αMSH (peptide)

pEC50 of cAMP production (HTRF cAMP assay) in receptor-transfected cells, with 0-30 μM fenoprofen; 6.78 at 0 μM, highest at 30 μM [1]: 7.29 pEC50
pEC50 of cAMP production (HTRF cAMP assay) in receptor-transfected cells, with 0-30 μM fenoprofen; 8.76 at 0 μM, highest at 30 μM [2]: 9.25 pEC50
pEC50 of cAMP production (HTRF cAMP assay) in receptor-transfected cells, with 0-30 μM fenoprofen; 8.69 at 0 μM, highest at 30 μM [3]: 9.03 pEC50
pEC50 of cAMP production (HTRF cAMP assay) in receptor-transfected cells, with 0-30 μM fenoprofen; 8.19 at 0 μM, highest at 30 μM [4]: 8.87 pEC50
Substance: ACTH (peptide)

pEC50 of cAMP production (HTRF cAMP assay) in receptor-transfected cells, with 0-30 μM fenoprofen; 6.64 at 0 μM, highest at 30 μM [1]: 7.22 pEC50
pEC50 of cAMP production (HTRF cAMP assay) in receptor-transfected cells, with 0-30 μM fenoprofen; 8.38 at 0 μM, highest at 30 μM [2]: 9.11 pEC50
pEC50 of cAMP production (HTRF cAMP assay) in receptor-transfected cells, with 0-30 μM fenoprofen; 8.33 at 0 μM, highest at 30 μM [3]: 8.86 pEC50
pEC50 of cAMP production (HTRF cAMP assay) in receptor-transfected cells, with 0-30 μM fenoprofen; 7.58 at 0 μM, highest at 30 μM [4]: 8.3 pEC50
Substance: αMSH (melanocyte-stimulating hormone) (peptide)

From PMC5346439
